According to patent publication US20150343090A1:

Biological target: neuropilin-1 (NRP-1) receptor on PPC-1 prostate cancer cells (human) (UniProt O14786)
Assay: cell-based or functional assay

UniProt O14786, sequence (O14786 22-923): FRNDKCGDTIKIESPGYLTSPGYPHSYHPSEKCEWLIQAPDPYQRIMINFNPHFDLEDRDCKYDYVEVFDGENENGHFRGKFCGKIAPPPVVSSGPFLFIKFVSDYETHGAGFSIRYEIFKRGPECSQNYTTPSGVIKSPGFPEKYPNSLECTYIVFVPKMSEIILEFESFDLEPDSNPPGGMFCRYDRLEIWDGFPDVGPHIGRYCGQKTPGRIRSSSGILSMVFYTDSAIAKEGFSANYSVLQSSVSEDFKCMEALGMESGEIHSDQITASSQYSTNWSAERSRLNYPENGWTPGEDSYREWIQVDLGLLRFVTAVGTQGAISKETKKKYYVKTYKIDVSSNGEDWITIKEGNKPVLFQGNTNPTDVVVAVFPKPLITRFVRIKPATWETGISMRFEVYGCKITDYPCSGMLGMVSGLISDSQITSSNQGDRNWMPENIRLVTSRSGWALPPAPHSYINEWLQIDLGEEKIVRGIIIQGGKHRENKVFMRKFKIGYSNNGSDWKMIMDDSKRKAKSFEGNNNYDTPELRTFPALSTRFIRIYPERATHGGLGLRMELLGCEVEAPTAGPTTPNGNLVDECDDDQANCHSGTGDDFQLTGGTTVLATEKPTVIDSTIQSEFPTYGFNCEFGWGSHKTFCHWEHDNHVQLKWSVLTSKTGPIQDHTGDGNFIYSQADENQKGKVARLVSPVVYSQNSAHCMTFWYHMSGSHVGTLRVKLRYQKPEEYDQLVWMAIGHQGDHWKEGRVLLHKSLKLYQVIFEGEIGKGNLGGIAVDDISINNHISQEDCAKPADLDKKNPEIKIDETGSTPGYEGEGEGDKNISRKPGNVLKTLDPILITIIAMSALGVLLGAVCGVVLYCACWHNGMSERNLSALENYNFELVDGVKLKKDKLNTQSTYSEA

GFP internalized per PPC-1 cell (cell lysate fluorescence) (GFP molecules per cell): 100000
nanoshells internalized per PPC-1 cell (calculated from cell lysate fluorescence) (RPARPAR GFP-HGN per cell): 200
Substance: His-tag-GFP-RPARPAR (RPARPAR-modified GFP fusion protein) loaded on NTA-Ni hollow gold nanoshells
